From the nanobody polyreactivity screen of Harvey et al. (2022)

assay: yeast display, Sf9 membrane polyspecificity reagent, FACS + sequencing; frameworks hold sequencing errors
Method in brief: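 Synthetic nanobody libraries on Saccharomyces cerevisiae BJ5465 were galactose-induced for 36–48 hours, stained 1 hour at 4 °C with 10% biotinylated, detergent-solubilized Sf9 membrane reagent and enriched on streptavidin microbeads. FACS then separated cells into low and high (top ~1%) gates by anti-HA (expression) and streptavidin (reagent binding) fluorescence. Genes were colony-PCR amplified, MiSeq 2 × 250 sequenced and CDR-length filtered. A clone's polyreactivity label is that of its gate of origin.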

Sequence | polyreactivity (PSR sort gate)
QVQLVESGGGLVQAGGSLRLSCAASGSTYYTYAMGWYRQAPGKERELVAAISWSGGTTYYADSVKGRFTISRDNAKNTVSLQMNSLKPEATAVYYCASDRDGILKANVYWGQCTQVTVSS | low polyreactivity
QVQLVESGGGLVQAGGSLRLSCAASGTFAVYTMGWYRQAPGKERELVAAISSGGSTYYADSVKGRFTISRDNAKNTVYLQMNSLKPEDTAVYYCAKVPGRYRADRYWDHYSHDYWGQGTQVTVSS | high polyreactivity
QVQLVESGGGLVQAGGSLRLSCAASGTFAVYTMGWYRQAPGKERELVAAITKSGGSTYYADSVKGRFTISRDNAKNTVYLQMNRLKPEDTAVYYCATRDSPRTKNGYYYWGQGTQVTVSS | high polyreactivity
QVQLVESGGGLVQAGGSLRLSCAASGTFGLYAMGWYRQAPGKERELVAAIRARGGSTYYADSVKGRFTISRDNAKNTLYLQKNSLKPEETAVYYCAAEFWDVALARKQWYDYWGQGTQVTVSS | high polyreactivity
QVQLVESGGGLVQAGGSLRLSCAASGTFSFYAMGWYRQAPGKERELVATIRSGGRTYYADSVKGRFTISRDNAKNTVYFQINSLKPEDTAVYYCAKTGFLGLRQYGYWGQGTQVTVSS | high polyreactivity
QVQLVESGGGLVQAGGSLRLSCAASGTFTGNAMGSYRQAPGKERELVAAITWSGGRTYYADSVKGRFTISRDNAKNTVYLQMNSLKPEDTAVYYCNAADEYLQERFWSDAFDYWGQGTQVTVSS | high polyreactivity
QVQLVESGGGLVQAGGSLRLSCAASGTFVSYVMGWYSQPPGKERELVAAINVRGASTYYADSVKGRFTISRDNAKITVYLQMNTLKPEDTAVYYCATEYVSGPEYDYWGQGTQVTVSS | low polyreactivity
QVQLVESGGGLVQAGGSLRLSCAASGTFVTYMGWYRQAPGKERELVAVISASGDSVKGRFTISRDNAKNTVYLQMNSLNPEDTAVYYCARELYRRVWHHWAYWAAYDYWGQGTQVTVSS | low polyreactivity
QVQLVESGGGLVQAGGSLRLSCAASGTFWWYAMGWYRQAPGKERELVASINRGGSTYYADSVKGRFTISRDNAKNTVYLQMNSLKPEDSAVYYCNARWIGRLTPYRRATYYYWGQGTQVTVSS | high polyreactivity
QVQLVESGGGLVQAGGSLRLSCAASGTFYYNTMGCYRQAPGKERELVAAITSGGRTYADSVKGRFTISRDNAKNTVYLQMNSLKEEDTAVYYCAVDKPYPYRIIIWYEYDYWGQGNQVTVSS | low polyreactivity
QVQLVESGGGLVQAGGSLRLSCAASGTIFIVNAMGWYRQAPGKERELVAAITQGDGSTYYADSVKGRFTISRDNAKNTVYLQMNSLKPEDTAVYYCAVGDLVAYTWQEYNYWGQGTQVNVSS | low polyreactivity
QVQLVESGGGLVQAGGSLRLSCAASGTIFSDYAMGWYRQAPGKERELVATITSRGGSTHYADSVKGRFTISRDNAKNTVYLQMNSLKPEDTAVYYCIVRRLYVYTITSGDVDYDYWGQGTQVTVSS | low polyreactivity
QVQLVESGGGLVQAGGSLRLSCAASGTIFTNAMGCYRQEPGKERQLVAAISSSGGSTYYADSVKGRFTISRDNAKNTVYLQMNSLKPEDTAVYYCAADGEVSLWTGYDYDYWGKGTQVTVSS | low polyreactivity
QVQLVESGGGLVQAGGSLRLSCAASGTIFYINAMGWYRQAPGKERELVAAIRSGGSTNYADSVKGRFTISRDNAKNTVYLQMNSLKPEDTAVYYCNARSRSYVPYYYWGQGTQVTVSS | high polyreactivity
QVQLVESGGGLVQAGGSLRLSCAASGTILRPYAMGWYRQAPGKERELVAAISTSGGRTFYADSVKGRFTISRDNAKNTVYLQMYSLNPEDTAVYYCAAVGYRFGSNYWGQGTQVTVSS | high polyreactivity
QVQLVESGGGLVQAGGSLRLSCAASGTMGWYRQAPGKERELVAAISQSGGSTYYADSVKGRFTISRDNAKNTVYLQMNSLKPEDTAVYYCAVDPRYGHPRRDYWGQGTQVTVSS | low polyreactivity
QVQLVESGGGLVQAGGSLRLSCAASGTTFAGNAMGWYRQAPGKEREFVAAITISGGSTYYADSVKGRFTISRDNAKNTVYLQMNRLKPEDTAVYYCAADYAYYVSLPSRFVYAGYDYWGQGTQVTVSS | low polyreactivity
QVQLVESGGGLVQAGGSLRLSCAASGTTFEVNAMGWYRQAPGKERELVATITRSGGSTYYADSVKGRFTISRDNAKNTVYLQMNSLKPEDTAVYYCNALWELKWGQGTQVTVSS | low polyreactivity
QVQLVESGGGLVQAGGSLRLSCAASGTTFGRNAMGWYRQAPGKERELVAAINSGGGTYYADSVKGRFTISRDNAKNTVYFQMNSLKPEDTAVYYCAAARRYGNYDYWGQGTQVTVSS | low polyreactivity
QVQLVESGGGLVQAGGSLRLSCAASGTTFGRNTMGWYRQAPGKERELVAAISKSGGSTRYADSVKGRFTISRDNAKNTVYLQMNRLKAEDTAFYYCAARVYSLGYGGDYWGQGTQVTVSS | high polyreactivity
QVQLVESGGGLVQAGGSLRLSCAASGTTFSPNAMGWYRQAPGKERELVAAIRGSGSRTYADSVKGRFTISRDNAKNSVYLQMNSLKPEDTAVYYCAAEWIYDTDYWYYSYYYWGQGTQVTVSS | low polyreactivity
QVQLVESGGGLVQAGGSLRLSCAASGTTIGVNAMGWYRQAPGKERDLVAAISRRGASTYYADSVKGRFTISLDNAKNTVYLQMNSLKPEETAVYYCAKAQVHDYIVSMDRYGYWGQGTQVTVSS | low polyreactivity

Sequence | polyreactivity (PSR sort gate)
QVQLVESGGGLVQAGGSLRLSCAASGTTNDYYDMGWYRQAPGKERELDAAISSGGDSTYYADSVMGRFTISRDNAKNTVYLQMNSLKPEDTAVYYCAAAVYYGQSVWYYYWGQGTEVTVSS | high polyreactivity
QVQLVESGGGLVQAGGSLRLSCAASGVNAMGWYRQAPGKEREFVAAITSIGGSTYYADSVKGRFTISRDNAKNTVYLQMNSLKPEDTAVYYCNTDRGPVKVSPLYESWGQGTQVTVSS | low polyreactivity
QVQLVESGGGLVQAGGSLRLSCAASGVTFHGYTMGWYRQAPGKERELVAAITSGGGTNYADSVKGRFTISRDNAKNTVYLQMNSLKPEDTAVYYCAAGFHKRVTPEILYDYWGQGTQVTVSS | low polyreactivity
QVQLVESGGGLVQAGGSLRLSCAASGYIFCKYAMGWYRQARGKERELVAGITRGGTTYYADSVKGRFTISRDNAKNTVYLQMNSLKPEVTAVYYCARDLLGVSSSRYNSWGQGTQVTVSS | high polyreactivity
QVQLVESGGGLVQAGGSLRLSCAASGYIFDGNAMGWYRKAPGKERELVAPITWTGGSTYYADSVKGRFTISRDNAKNTVYLQMNSLKPEDTAVYYCAKPYDPGPYHSSYRATDDYWGQGTQVTVSS | low polyreactivity
QVQLVESGGGLVQAGGSLRLSCAASGYIFDIYAMGWYRQAPGKERELVAVITRSGGGTYYADSVKGRFTISRDNAKNSVYLQMNSLKPEDTAVYYCAAESYVYGGSDYDYWGQGTQVTVSS | low polyreactivity
QVQLVESGGGLVQAGGSLRLSCAASGYIFDRYAMGWYRQAPGKERELVAAISGRGGSTYYADSVKGRFTISRDNAKNTVSLQMNSLKPEDTAVYYCARDVYVRNGQRARYDSWGQGTQVTVSS | high polyreactivity
QVQLVESGGGLVQAGGSLRLSCAASGYIFFFYAMGWYRQAPGKERELVASITYRGGSTYYADSVKGRFTISRDNAKNTVYLQMNSLKPEDTAVYYCNVDGGGPLGPQGFPFDYWGQGTQVTVSS | low polyreactivity
QVQLVESGGGLVQAGGSLRLSCAASGYIFFRNAMGWSRQAPGKEREFVADIRFSGGNTYYADSVKGRFTISRDNAKNTVYFQKISLKPEDTAVYYCSADLVYTYAYDYWGQGTQVTVSS | low polyreactivity
QVQLVESGGGLVQAGGSLRLSCAASGYIFFTNAMGWYRQAPGKERELVAAISTIDGSTYYADSVKGRFTISRDNAKNTVYLQMNSLKPEDTAVYYCATDTPFISSLAYDYWGQGTQVTVSS | low polyreactivity
QVQLVESGGGLVQAGGSLRLSCAASGYIFGFYAKGWYRQAPGKERELVARITYSGTSTYYADSVKGRFTISRDNAKNTVYLQMNSLKPEDTAVYYCAKRNKRSAWDSDEYDYWGQGTQVTVSS | low polyreactivity
QVQLVESGGGLVQAGGSLRLSCAASGYIFGGYAMGWYRQAPGKERELVAGISIGVGSTYYADSVKGRFTISRDNAKNTVYLQMNSLKPEDTAVYYCNRDSVGYDYWGQGTQVTVSS | low polyreactivity
QVQLVESGGGLVQAGGSLRLSCAASGYIFGRNAMGWYRQAPGKERELVAVSSSRGSRTYYADSVKGRFTISRDNAKNTVYLQMNSLKPEDTAVYYCAVRGVVNFDYWGQGTQVTVSS | high polyreactivity
QVQLVESGGGLVQAGGSLRLSCAASGYIFGVYTMGWYRQAPGKERELVAGISSGSSTYYADSVKGRFTISRDNAKNTVYLQMNSLKPEDTAVYYCAARERSRTYTSRKQVDYGYGYWGQGTQVTVSS | low polyreactivity
QVQLVESGGGLVQAGGSLRLSCAASGYIFHLYGMGWYRQAPGKERELVARISYRGGSTYYADSVKGRFTISRDNAKNTVYLQMNSLKTEDTAVYYCAKDYYKHYYWGQGTQVTVSS | high polyreactivity
QVQLVESGGGLVQAGGSLRLSCAASGYIFHSYMGSYRQAPGKETELVAAITSGGSTYYADSVKGRFTISRDNAKNTFFLKMNSLKPEDTAVYYCGAGWWYYLHMDYWGQGTQVTVSS | high polyreactivity
QVQLVESGGGLVQAGGSLRLSCAASGYIFIDYAMGWYRQAPGKERELVAAIRWSDSTYYADSVKGRFTISRDNAKNTVYLEMNSLKPEDTAVYYCAAEDSIRWVRRSRWYYYWGQGTQVTVSS | low polyreactivity
QVQLVESGGGLVQAGGSLRLSCAASGYIFLANAMGWYRQAPGKERELVARIDTRGDSTYYADSVKGRFTISRDTAKNTVYLQMNSLKPEDTAVYYCAADQQTWWQYSLINEYDYWGQGTQLTVSS | low polyreactivity
QVQLVESGGGLVQAGGSLRLSCAASGYIFLRNAKGWSRQAPGKERELVAAIRRTGGSTYYADSVKGRFTISRDIAKNTVYLDMNSLKPEDTAVYYCAKRSYTGYEYLGQGTQVTVSS | low polyreactivity
QVQLVESGGGLVQAGGSLRLSCAASGYIFLRNAMGWYRQAPGKERELVAAIRRTGGSTYYADSVKGRFTISRDNAKNTVYLQMNSLKPEDTAVYYCAKRSYTGYEYWGQGTQVTVSS | low polyreactivity
QVQLVESGGGLVQAGGSLRLSCAASGYIFNYAMGWYRQAPGKERQLVAAISRRGGSTYYADSVKGRFTISRDNAKNTVYLQMISLKPEDTAVYYCADRLPGYYGIGDYWGQGSQVTVSS | high polyreactivity
